Measurements as given in doi:10.1101/464131, “Increased association between Epstein-Barr virus EBNA2 from type 2 strains and the transcriptional repressor BS69 restricts B cell growth” (bioRxiv, 2018).

B1: BS69 CC-MYND domain (amino acids 480-602) (domain or fragment, human, UniProt Q15326-1 480-602, looked up)
chain: DRMKSDHKRETERVVREALEKLRSEMEEEKRQAVNKAVANMQGEMDRKCKQVKEKCKEEFVEEIKKLATQHKQLISQTKKKQWCYNCEEEAMYHCCWNTSYCSIKCQQEHWHAEHKRTCRRKR
notes: BS69 (ZMYND11), human, C-terminal region with the coiled-coil and MYND domains, amino acids 480-602; canonical isoform 1 of 602 amino acids; Dimer by SEC-MALS; Amplified from pCI-BS69 and cloned into pET49b+; also called ZMYND11; source: E. coli Rosetta 2 (DE3) pLysS, purified (cobalt resin, 3C protease cleavage, Superdex 75); not shown: GST, N-terminal, cleaved; His6, N-terminal, cleaved

Tests used:
[1] = target: the molecule itself; experiment: SEC-MALS; individual proteins, 5 mg/ml, Shodex KW403-4F column, 25°C, 20 mM Tris-HCl, 100 mM NaCl, 1 mM TCEP, pH 7.5
[2] = target: B1; experiment: ITC; EBNA2 peptide (1 mM) titrated into BS69CC-MYND (0.1 mM) in the cell, 13 injections, 25°C, 20 mM Tris-HCl, 100 mM NaCl, 1 mM TCEP, pH 7.5; one-site model with n fixed to 1; settings: both partners purified
[3] = target: B1; experiment: ITC; EBNA2 polypeptide titrated into BS69CC-MYND (0.1 mM) in the cell, 19 x 2.0 μl injections, 25°C, 20 mM Tris-HCl, 100 mM NaCl, 1 mM TCEP, pH 7.5; one set of sites model; n calculated for monomeric proteins; settings: both partners purified
[4] = target: B1; experiment: ITC; EBNA2 polypeptide titrated into BS69CC-MYND (0.1 mM) in the cell, 29 x 1.3 μl injections, 25°C, 20 mM Tris-HCl, 100 mM NaCl, 1 mM TCEP, pH 7.5; two sets of sites (two event) model; settings: both partners purified
[5] = target: T1, BS69 CC-MYND domain (amino acids 480-602) (human, UniProt Q15326-1 480-602); experiment: ITC
T1 chain: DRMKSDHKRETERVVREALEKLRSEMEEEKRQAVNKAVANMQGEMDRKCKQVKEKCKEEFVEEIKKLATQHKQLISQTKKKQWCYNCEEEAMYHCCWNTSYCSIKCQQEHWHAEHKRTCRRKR

B1
stoichiometry N [1]: 2

B2: type 2 EBNA2 motif 2 peptide (402-412) (peptide)
peptide: EPPFLFPSDWY
notes: source: synthetic peptide (Peptide Synthetics)
Kd [2]: 176000 nM

B3: type 2 EBNA2 motif 3 peptide T2 EBNA2_(412-422) (peptide)
peptide: YPPTLEPAELD
notes: as for B2
Kd [2]: 219000 nM

B4: type 2 EBNA2 polypeptide T2 EBNA2_(348-422) (domain or fragment)
chain: SMPQLSPVVSLHQGQGPENSPTPGPSTAGPVCRVTPSATPDISPIHEPESSDSEEPPFLFPSDWYPPTLEPAELD
notes: pET47b+ construct; Monomer by SEC-MALS; also called type 2 EBNA2_(348-422); source: E. coli Rosetta 2 (DE3) pLysS, purified (cobalt resin, 3C protease cleavage, Superdex 75); not shown: His6, N-terminal, cleaved
stoichiometry N [3]: 0.15 molar ratio EBNA2 : BS69CC-MYND monomer
dH (second binding event) [4]: -1.59 kcal/mol
Kd [5]: 1010 nM

B5: T2 EBNA2_(348-422) motif 3 mt (domain or fragment)
chain: SMPQLSPVVSLHQGQGPENSPTPGPSTAGPVCRVTPSATPDISPIHEPESSDSEEPPFLFPSDWYPATAEAAELD
notes: EBNA2 of type 2 EBV (AG876), amino acids 348-422, motif 3 (PTLEP 414-418) mutated to ATAEA; source: E. coli Rosetta 2 (DE3) pLysS, purified (cobalt resin, 3C protease cleavage, Superdex 75); not shown: His6, N-terminal, cleaved
stoichiometry N [3]: 0.3 molar ratio EBNA2 : BS69CC-MYND monomer

B6: T2 EBNA2_(348-422) SD mutant (domain or fragment)
chain: SMPQLSPVVSLHQGQGPENSPTPGPSTAGPVCRVTPSATPDISPIHEPESSDSEEPPFLFPDDWYPPTLEPAELD
notes: EBNA2 of type 2 EBV (AG876), amino acids 348-422 with serine 409 changed to aspartate (the position that is 442 in type 1 EBNA2); text and methods print 409; source: E. coli Rosetta 2 (DE3) pLysS, purified (cobalt resin, 3C protease cleavage, Superdex 75); not shown: His6, N-terminal, cleaved
dH (second binding event) [4]: -7.65 kcal/mol

B7: EBNA2_(348-422) SD + m3 mt (domain or fragment)
chain: SMPQLSPVVSLHQGQGPENSPTPGPSTAGPVCRVTPSATPDISPIHEPESSDSEEPPFLFPDDWYPATAEAAELD
notes: EBNA2 of type 2 EBV (AG876), amino acids 348-422 with S409D and motif 3 (PTLEP 414-418) mutated to ATAEA; also called T2 EBNA2_(348-422) SD + motif 3 mt; double mutant type 2 EBNA2 polypeptide; source: E. coli Rosetta 2 (DE3) pLysS, purified (cobalt resin, 3C protease cleavage, Superdex 75); not shown: His6, N-terminal, cleaved
dH (second binding event) [4]: -9.62 kcal/mol
fold reduction of the affinity of the second binding event (KD2) against m11 [4]: ~2 fold

B8: type 1 EBNA2 polypeptide T1 EBNA2_(381-455) (domain or fragment)
chain: SMPELSPVLGLHQGQGAGDSPTPGPSNAAPVCRNSHTATPNVSPIHEPESHNSPEAPILFPDDWYPPSIDPADLD
Kd [5]: 730 nM

B9: type 2 EBNA2 polypeptide T2 EBNA2_(348-412) (domain or fragment)
chain: SMPQLSPVVSLHQGQGPENSPTPGPSTAGPVCRVTPSATPDISPIHEPESSDSEEPPFLFPSDWY
notes: pET47b+ construct; also called type 2 EBNA2_(348-412); source: E. coli Rosetta 2 (DE3) pLysS, purified (cobalt resin, 3C protease cleavage, Superdex 75); not shown: His6, N-terminal, cleaved
Kd [3]: 1210 nM
stoichiometry N [3]: 0.33 molar ratio EBNA2 : BS69CC-MYND monomer
